US20240158475A1
Where a chain is given by its changes, count along the chain named.

B1: Mutation 2 (antibody, V domains shown)
VH: EVQLQQSGTELVRPGALVKLSCKASGFNIKDYYVHWVKQRPRQGLEWIGWIDPNNGKTLYDPKYQDKASITSDTSTNTAYLQLRSLTSEDTAVYYCVTAYVRFVYWGQGTLVTVSA
VL: QIVLTQSPAIMSAFPGERVTMTCSASSSVRYMYWHQQKPGSSPRLLIYDTSNVASGVPVRFSGSGSGTSYSLTISRDEAMDAATYYCQQYSSTPRTFGGGTKLEIKR
B2: Mutation 3 (antibody, V domains shown)
VH: B1 VH with D31L, N54K, Y64C
VL: B1 VL with R30V, D49C, V57L, Y90R
B3: Mutation 4 (antibody, V domains shown)
VH: B1 VH with D31R, N54R, Y64V
VL: B1 VL with R30I, D49W, V57Y, Y90V
B4: anti-dengue virus NS1 3D5 monoclonal antibody (recombinant, expressed in CHO cells) (antibody, mouse IgG1, kappa, V domains shown)
VH: B1 VH with L59I, Y64F
VL: B1 VL with S27T, R30K, D49E, V53I, Y90W, T93Y
B5: Mutation 1 (antibody, V domains shown)
VH: B1 VH with N54E, Y64F
VL: B1 VL with Y90W
B6: Mutation 1-17 (antibody, V domains shown)
VH: B1 VH with V34L, N54E, L59I, Y64F, T98S, V101F
VL: B1 VL with S27T, V53I, Y90W, T93F
B7: Mutation 1-18 (antibody, V domains shown)
VH: B1 VH with N54E, Y64F, T98S
VL: B1 VL with V53L, Y90W
B8: Mutation 1-19 (antibody, V domains shown)
VH: B1 VH with V34I, N54E, L59I, Y64F, T98S, V101F
VL: B1 VL with S27T, Y90W, T93Y
B9: Mutation 1-20 (antibody, V domains shown)
VH: B1 VH with N54E, Y64F, T98S, V101Y
VL: B1 VL with Y90W
B10: Mutation 1-21 (antibody, V domains shown)
VH: B1 VH with N54E, L59I, Y64F, T98S, V101F
VL: B1 VL with V53L, Y90W, T93F
B11: Mutation 1-22 (antibody, V domains shown)
VH: B1 VH with V34I, N54E, Y64F, T98S, V101Y
VL: B1 VL with S27T, V53L, Y90W, T93F

Molecular target: DN-III-NS antigen (produced by Fapon Biotech InC.) (dengue virus)
Experiment: capture ELISA (anti-mouse IgG / antibody / antigen / HRP-mAb), antibody sample Original

**Q.** B1 was tested. Which OD450 (ref. 630 nm) did it give?
**A.** The OD450 (ref. 630 nm) was 2.27 OD.

**Q.** How did the OD450 (ref. 630 nm) turn out when B2 was run?
**A.** The OD450 (ref. 630 nm) was 1.05 OD.

**Q.** Which OD450 (ref. 630 nm) does the source give for B3 here?
**A.** Its OD450 (ref. 630 nm) is 0.892 OD.

**Q.** How did the OD450 (ref. 630 nm) turn out when B4 was run?
**A.** The OD450 (ref. 630 nm) was 2.34 OD.

**Q.** B5 was tested. Which OD450 (ref. 630 nm) did it give?
**A.** The OD450 (ref. 630 nm) was 2.37 OD.

Molecular target: DN-III-NS antigen (produced by Fapon Biotech InC.) (dengue virus)
Experiment: capture ELISA, antibody sample 3-fold dilution

**Q.** How did the OD450 (ref. 630 nm) turn out when B1 was run?
**A.** Its OD450 (ref. 630 nm) is 2.25 OD.

**Q.** How did the OD450 (ref. 630 nm) turn out when B2 was run?
**A.** The OD450 (ref. 630 nm) was 0.879 OD.

**Q.** For B3, which OD450 (ref. 630 nm) is on record?
**A.** The OD450 (ref. 630 nm) was 0.102 OD.

**Q.** For B4, which OD450 (ref. 630 nm) is on record?
**A.** Its OD450 (ref. 630 nm) is 2.31 OD.

**Q.** For B5, which OD450 (ref. 630 nm) is on record?
**A.** The OD450 (ref. 630 nm) was 2.38 OD.

Molecular target: DN-III-NS antigen (produced by Fapon Biotech InC.) (dengue virus)
Experiment: capture ELISA, antibody sample 27-fold dilution

**Q.** Which OD450 (ref. 630 nm) does the source give for B1 here?
**A.** Its OD450 (ref. 630 nm) is 1.56 OD.

**Q.** With B2 as the binder, how does the OD450 (ref. 630 nm) read?
**A.** Its OD450 (ref. 630 nm) is 0.031 OD.

**Q.** Which OD450 (ref. 630 nm) does the source give for B4 here?
**A.** The OD450 (ref. 630 nm) was 1.57 OD.

**Q.** For B5, which OD450 (ref. 630 nm) is on record?
**A.** The OD450 (ref. 630 nm) was 1.9 OD.

Molecular target: DN-III-NS antigen (produced by Fapon Biotech InC.) (dengue virus)
Experiment: capture ELISA, antibody sample 243-fold dilution

**Q.** How did the OD450 (ref. 630 nm) turn out when B1 was run?
**A.** The OD450 (ref. 630 nm) was 0.204 OD.

**Q.** With B4 as the binder, how does the OD450 (ref. 630 nm) read?
**A.** Its OD450 (ref. 630 nm) is 0.281 OD.

**Q.** Which OD450 (ref. 630 nm) does the source give for B5 here?
**A.** The OD450 (ref. 630 nm) was 0.361 OD.

Molecular target: DN-III quality control recombinant protein (produced by Fapon Biotech InC.) (dengue virus)
Experiment: BLI, AMC sensor, antibody captured

**Q.** B4 was tested. Which Kd did it give?
**A.** Its Kd is 3.09 nM.

**Q.** What about the koff of the same binder?
**A.** The koff was 0.000137 s⁻¹.

**Q.** What about the kon of the same binder?
**A.** The kon was 44300 M⁻¹ s⁻¹.

**Q.** How did the Kd turn out when B5 was run?
**A.** The Kd was 1.07 nM.

**Q.** What about the koff of the same binder?
**A.** Its koff is 4.03e-05 s⁻¹.

**Q.** What about the kon of the same binder?
**A.** Its kon is 37700 M⁻¹ s⁻¹.

**Q.** With B6 as the binder, how does the Kd read?
**A.** The Kd was 0.78 nM.

**Q.** What about the koff of the same binder?
**A.** The koff was 2.71e-05 s⁻¹.

**Q.** And the kon?
**A.** Its kon is 34600 M⁻¹ s⁻¹.

**Q.** Which Kd does the source give for B7 here?
**A.** Its Kd is 0.9 nM.

**Q.** And the koff?
**A.** The koff was 3.99e-05 s⁻¹.

**Q.** And the kon?
**A.** The kon was 44500 M⁻¹ s⁻¹.

**Q.** How did the Kd turn out when B8 was run?
**A.** Its Kd is 4.1 nM.

**Q.** And the koff?
**A.** Its koff is 4.34e-05 s⁻¹.

**Q.** And the kon?
**A.** Its kon is 31400 M⁻¹ s⁻¹.

**Q.** B9 was tested. Which Kd did it give?
**A.** The Kd was 0.41 nM.

**Q.** And the koff?
**A.** The koff was 1.66e-05 s⁻¹.

**Q.** And the kon?
**A.** The kon was 40900 M⁻¹ s⁻¹.

**Q.** For B10, which Kd is on record?
**A.** Its Kd is 0.66 nM.

**Q.** What about the koff of the same binder?
**A.** The koff was 1.31e-05 s⁻¹.

**Q.** What about the kon of the same binder?
**A.** Its kon is 32300 M⁻¹ s⁻¹.

**Q.** What does the source list for B11?
**A.** Kd: 0.87 nM; koff: 3.2e-05 s⁻¹; kon: 48400 M⁻¹ s⁻¹

Molecular target: DN-III-NS antigen (produced by Fapon Biotech InC.) (dengue virus)
Experiment: capture ELISA, antibody sample 9-fold dilution

**Q.** Which OD450 (ref. 630 nm) does the source give for B1 here?
**A.** The OD450 (ref. 630 nm) was 2.13 OD.

**Q.** How did the OD450 (ref. 630 nm) turn out when B2 was run?
**A.** Its OD450 (ref. 630 nm) is 0.21 OD.

**Q.** B3 was tested. Which OD450 (ref. 630 nm) did it give?
**A.** Its OD450 (ref. 630 nm) is 0.014 OD.

**Q.** For B4, which OD450 (ref. 630 nm) is on record?
**A.** The OD450 (ref. 630 nm) was 2.22 OD.

**Q.** For B5, which OD450 (ref. 630 nm) is on record?
**A.** Its OD450 (ref. 630 nm) is 2.29 OD.

Molecular target: DN-III-NS antigen (produced by Fapon Biotech InC.) (dengue virus)
Experiment: capture ELISA, antibody sample 729-fold dilution

**Q.** With B1 as the binder, how does the OD450 (ref. 630 nm) read?
**A.** Its OD450 (ref. 630 nm) is 0.158 OD.

**Q.** B4 was tested. Which OD450 (ref. 630 nm) did it give?
**A.** Its OD450 (ref. 630 nm) is 0.169 OD.

**Q.** Which OD450 (ref. 630 nm) does the source give for B5 here?
**A.** The OD450 (ref. 630 nm) was 0.188 OD.

Molecular target: DN-III-NS antigen (produced by Fapon Biotech InC.) (dengue virus)
Experiment: capture ELISA, antibody sample 81-fold dilution

**Q.** B1 was tested. Which OD450 (ref. 630 nm) did it give?
**A.** Its OD450 (ref. 630 nm) is 0.689 OD.

**Q.** With B4 as the binder, how does the OD450 (ref. 630 nm) read?
**A.** The OD450 (ref. 630 nm) was 0.696 OD.

**Q.** For B5, which OD450 (ref. 630 nm) is on record?
**A.** Its OD450 (ref. 630 nm) is 0.918 OD.
